Test results as given in the supplement of paper PMC7877785.
± gives the uncertainty stated by the source.

Test: self-splicing fitness, log relative to wild type (ln ratio); higher = more splicing; Tetrahymena group I intron in knt gene, E. coli kanamycin selection, DiMSum; sequences stand for … in CUCUCU…GGAGGGAAAAGUUAUCAGGCAUGCACCUGGUAGCUAGUCUUUAAACCAAUAGAUUGCAUCGGUUUAAAAGGCAAGACCGUCAAAUUGCGGGAAAGGGGUCAACAGCCGUUCAGUACCAAGUCUCAGGGGAAACUUUGAGAUGGCCUUGCAAAGGGUAUGGUAAUAAGCUGACGGACAUGGUCCUAACCACGCAGCCAAGUCCUAAGUCAACAGAUCUUCUGUUGAUAUGGAUGCAGUUCACAGACUAAAUGUCGGUCGGGGAAGAUGUAUUCUUCUCAUAAGAUAUAGUCGGACCUCUCCUUAAUGGGAGCUAGCGGAUGAAGUGAUGCAACACUGGAGCCGCUGGGAACUAAUUUGUAUGCGAAAGUAUAUUGAUUAGUUUUGGAGUACUCGUGGUCG
Outline: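 Library with all eight P1ex-region intron nucleotides randomised, intron inside the knt kanamycin-resistance gene on pET-22b(+), in E. coli BL21(DE3). Cells grew overnight at 37°C or 30°C on LB agar with or without 25 μg/mL kanamycin (plus 100 μg/mL carbenicillin, 50 μM IPTG, 0.2% rhamnose), in six replicate transformations. Pooled colonies were amplicon-sequenced on Illumina HiSeq 2500. DiMSum fitness is the error-weighted combination of wild-type-normalised replicate fold changes, kanamycin versus none.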

Sequence | self-splicing fitness (ln) (30 °C) | self-splicing fitness (ln) (37 °C)
CAGUAGCAAUAUUACGAGGA | -3.13 ± 0.24 | -1.77 ± 0.2
CAGUAGCAAUAUUACGAGGC | -3.19 ± 0.17 | -2.94 ± 0.3
CAGUAGCAAUAUUACGAGUC | -4.27 ± 0.27 | -2.36 ± 0.17
CAGUAGCAAUAUUACGAUUU | -2.52 ± 0.19 | -1.45 ± 0.17
CAGUAGCAAUAUUACGCAUC |  | -1.82 ± 0.26
CAGUAGCAAUAUUACGCCGG | -0.444 ± 0.21 | -0.309 ± 0.28
CAGUAGCAAUAUUACGCGCG | -0.327 ± 0.16 | 0.324 ± 0.18
CAGUAGCAAUAUUACGCGGC | -2.92 ± 0.32 | -2.14 ± 0.5
CAGUAGCAAUAUUACGCGGU | -2.74 ± 0.12 | -2.94 ± 0.19
CAGUAGCAAUAUUACGCUAC | -4.2 ± 0.3 | -2.7 ± 0.23
CAGUAGCAAUAUUACGCUUC | -3.45 ± 0.3 | -2.74 ± 0.28
CAGUAGCAAUAUUACGGAGC |  | -1.75 ± 0.33
CAGUAGCAAUAUUACGGCAG | -0.259 ± 0.073 | 0.0185 ± 0.1
CAGUAGCAAUAUUACGGCCG | -0.034 ± 0.13 | 0.348 ± 0.2
CAGUAGCAAUAUUACGGGAC | -4.57 ± 0.28 | -3.56 ± 0.2
CAGUAGCAAUAUUACGGGGC | -2.54 ± 0.15 | -2.55 ± 0.23
CAGUAGCAAUAUUACGGUAA | -3.19 ± 0.31 | -1.57 ± 0.22
CAGUAGCAAUAUUACGUCCU | -3.2 ± 0.18 | -1.43 ± 0.14
CAGUAGCAAUAUUACGUGGU | -2.56 ± 0.13 | -2.54 ± 0.17
CAGUAGCAAUAUUACGUUUG | -1.35 ± 0.08 | -0.625 ± 0.11

Sequence | self-splicing fitness (ln) (30 °C) | self-splicing fitness (ln) (37 °C)
CAUAAGCAAUAUUACGAAUU | -3.44 ± 0.27 | -1.52 ± 0.22
CAUAAGCAAUAUUACGACAC | -2.18 ± 0.15 | -2.12 ± 0.27
CAUAAGCAAUAUUACGACCA |  | -2.1 ± 0.36
CAUAAGCAAUAUUACGACUU | -3.55 ± 0.24 | -1.5 ± 0.16
CAUAAGCAAUAUUACGAGAU | -3.53 ± 0.15 | -3.51 ± 0.23
CAUAAGCAAUAUUACGAUAU | -3.41 ± 0.28 | -2.86 ± 0.32
CAUAAGCAAUAUUACGGAAG | -1.43 ± 0.075 | -0.578 ± 0.096
CAUAAGCAAUAUUACGGAGG | -2.3 ± 0.11 | -0.959 ± 0.13
CAUAAGCAAUAUUACGUAUU | -3.24 ± 0.19 | -3.09 ± 0.19
CAUAAGCAAUAUUACGUCAA | -3.33 ± 0.27 | -2.61 ± 0.3
CAUAAGCAAUAUUACGUCCA | -3.32 ± 0.33 | -1.87 ± 0.22
CAUAAGCAAUAUUACGUCGA | -3.41 ± 0.26 | -2.86 ± 0.17
CAUAAGCAAUAUUACGUCUG | -0.477 ± 0.065 | -0.45 ± 0.082
CAUAAGCAAUAUUACGUCUU | -3.71 ± 0.17 | -2.41 ± 0.19
CAUCAGCAAUAUUACGAAAG | -0.638 ± 0.065 | -0.249 ± 0.087
CAUCAGCAAUAUUACGAAGG | -0.555 ± 0.048 | -0.58 ± 0.066
CAUCAGCAAUAUUACGAAUC | -1.97 ± 0.13 | -1.25 ± 0.12
CAUCAGCAAUAUUACGACAC | -1.78 ± 0.21 | -3.05 ± 0.37
CAUCAGCAAUAUUACGACAG | 0.0306 ± 0.087 | 0.00869 ± 0.13
CAUCAGCAAUAUUACGACUC | -1.82 ± 0.26 | -0.687 ± 0.23

Sequence | self-splicing fitness (ln) (30 °C) | self-splicing fitness (ln) (37 °C)
CAUCAGCAAUAUUACGAGUG | -2.26 ± 0.11 | -0.515 ± 0.1
CAUCAGCAAUAUUACGAGUU | -4.08 ± 0.19 | -2.53 ± 0.12
CAUCAGCAAUAUUACGAUAA | -1.46 ± 0.092 | -0.079 ± 0.088
CAUCAGCAAUAUUACGAUAC | -2.95 ± 0.16 | -1.75 ± 0.16
CAUCAGCAAUAUUACGCAAA | -2.39 ± 0.15 | -2.48 ± 0.21
CAUCAGCAAUAUUACGGAGA | -1.78 ± 0.14 | -1.3 ± 0.12
CAUCAGCAAUAUUACGGAGU | -2.65 ± 0.12 | -0.842 ± 0.11
CAUCAGCAAUAUUACGGAUC | -1.79 ± 0.088 | 0.216 ± 0.11
CAUCAGCAAUAUUACGGCAA | -3.37 ± 0.21 | -2.1 ± 0.2
CAUCAGCAAUAUUACGGGAG | -0.766 ± 0.054 | -0.2 ± 0.075
CAUCAGCAAUAUUACGGUAU | -2.95 ± 0.13 | -1.13 ± 0.14
CAUCAGCAAUAUUACGUAUA | -1.68 ± 0.095 | -0.354 ± 0.11
CAUCAGCAAUAUUACGUCAU | -3.06 ± 0.1 | -1.78 ± 0.12
CAUCAGCAAUAUUACGUCUC | -3.16 ± 0.19 | -1.75 ± 0.17
CAUCAGCAAUAUUACGUGUG | -2.72 ± 0.092 | -1.38 ± 0.08
CAUCAGCAAUAUUACGUUAU | -3.34 ± 0.12 | -2.02 ± 0.11
CAUCAGCAAUAUUACGUUGG | -1.58 ± 0.059 | -0.639 ± 0.067
CAUGAGCAAUAUUACGACCG | -0.701 ± 0.12 | 0.276 ± 0.14
CAUGAGCAAUAUUACGACGA | -2.3 ± 0.3 | -1.85 ± 0.21
CAUGAGCAAUAUUACGAGCG | -0.045 ± 0.092 | 0.443 ± 0.11
